# Reference: patent US20080063623A1 (INTEVERT INTERNATIONAL B V, published 2008)
# Target: the molecule itself
# Experiment: transfection of COS-7 cells, non-denaturing Western blot of supernatants
# Method: COS-7 cells were transfected with 1.5 μg of each cDNA construct using the Invitrogen Life Technologies Lipofectamine™ reagent (as described by the manufacturer) and cultured in 3-cm dishes with DMEM (without FCS and penicillin/streptomycin). After 8 h, transfected cells were washed and cultured in DMEM with penicillin/streptomycin and 10% FCS. After 72 h incubation at 37° C./5% C0₂ the cell culture supernatants were harvested and centrifuged at 13,000 rpm for 10 min at 4° C. to remove cell debris. The supernatants were analyzed via Western blotting and used immediately or stored at −70° C.
# Cell culture supernatants from transfected COS-7 cells were size fractionated using 4-12% Nu-PAGE™ (Invitrogen) and blotted onto nitrocellulose filters (Schleicher & Schuell). Western blots were blocked in 3% skimmed milk (MPBS) in PBS, and subsequently incubated with a polyclonal antibody that was raised against a FeIL-12 p40 peptide diluted 1:300 in MPBS. Blocking and antibody incubation were each performed for 1 h at room temperature. After extensive washing (3 times 5 min), blots were incubated with alkaline peroxidase (AP)-conjugated goat anti-rabbit IgG antibodies (Sanbio) diluted 1:1000 in MPBS for 1 h at room temperature. After washing (3 times 5 min), bound AP-labeled secondary antibodies were visualized via staining. […]
protein,measurement,value
"chicken IL-12 p40 subunit (ChIL-12 p40) (ligand, also called chicken p40; clone pND89) QWKLRENVYVIESEWNDETPAKKVKLTCDTSDEALPVYWKKGTELKGTGKTLTTEVKEFPDAGNYTCLSAKTHEIISYSFFLITKVDSNGQMIRSILKSYKEPSKTFLKCEAKNYSGIFTCSWMTENESPSVKFTIRSLKGSQGDVTCSSPVARTDKSVTEYTAQCQKENYCPFAEEHQPTEMFLEVIDEVEYENYTSSFFIRDIIKPDPPQCQYASTNGTVTWTYPKTWSTPKSYFPLTFRVKVESTKKYKSKVYDADEQSIQIPKTGPKDKISVQARDRYYNSSWSEWSTLCR",binding result,binds
